Laboratory results: US20110200629A1

Target: T1, HLA-A0201 (human), P04439
T1 chain: not shown

B1: murine H-2 Kb binding peptide VSV8 (RGYVYQGL, SEQ ID NO:6) (peptide)
peptide: RGYVYQGL
modifications: not checked
Q: Which % MFI increase does the source give for B1 here?
A: The % MFI increase was 5.6%.
